Reference: patent US20240239907A1 (EDELWEISS IMMUNE, published 2024)
Positions count from the first letter of the chain named.

T1: cynomolgus monkey CXCR6 (cynomolgus monkey, UniProt Q9BDS6 1-343)
T1 construct: also called cyno-CXCR6; cyno monkey CXCR6
T1 sequence: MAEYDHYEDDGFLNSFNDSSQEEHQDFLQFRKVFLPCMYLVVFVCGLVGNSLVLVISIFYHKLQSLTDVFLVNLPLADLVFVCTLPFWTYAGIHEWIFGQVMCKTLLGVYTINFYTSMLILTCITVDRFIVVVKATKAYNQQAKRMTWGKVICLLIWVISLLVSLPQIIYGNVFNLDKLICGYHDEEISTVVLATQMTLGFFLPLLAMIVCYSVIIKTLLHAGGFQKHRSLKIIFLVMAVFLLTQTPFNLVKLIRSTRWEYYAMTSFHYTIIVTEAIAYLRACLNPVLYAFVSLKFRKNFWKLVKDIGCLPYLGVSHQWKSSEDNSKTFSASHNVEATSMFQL

T2: N-terminal fusion protein linking the extracellular N terminus of human CXCR6 and the Fc region of human IgG1 (human, not fully specified)
T2 construct: not shown: Fc region of human IgG1
T2 chain: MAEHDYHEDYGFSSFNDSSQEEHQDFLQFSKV

B1: CNE-6E5-C1 (antibody, V domains shown)
VH: QVTLKESGPGILQSSQILSLTCSFSGFSLITSGMGVSWIRKTSGKGLEWLAHIYWDDEKRYNPSLKSRLTISKGTSRNQVFLRITSVDTTDTATYFCVRREDFGDGFDYWGQGTTLTVSP
VL: DVLMTQAPLSLPVSLGDQASISCRSSQTIVHSNGVTYLEWYLQKPGQSPKLLIYKVSNRFSGVPDRFSGSGSGTYFTLKISRVEAEDLGVYYCFQGSHVPPTFGGGTKLEIK
notes: Mouse-derived; tested at the screening stage
B2: CNGs-3B2 (antibody, V domains shown)
VH: DVQLVESGGGLVQPGGSRTLSCAASGFTFSSFGMHWVRQAPEKGLEWVAYISSGSTTIYYADTVKGRFTISRDNPKNTLFLQVTSLRSEDTAVYYCTRSHWPYWYFDVWGAGTTVTVSS
VL: DVQITQSPSYLAASPGETITINCRASKSISKYLAWYQEKPGKTNKLLIYSGSTLQSGNPSRFSGSGSGTDFTLTISRLEPEDCAMYYCQQHNEFPWTFGGGTKLEIK
notes: as for B1
B3: Beacon2-F1 (antibody, V domains shown)
VH: EVQLVESGGDLVKPGGSLKLSCAASGFTFSSYGMSWVRQTPDKRLEWVATISSGGSYTYYPDSVKGRFPISRDNAKNTLYQQMSSLNSEDTAMYYCARLYGNYPYFAMDYWGQGTSVTVSS
VL: DIVMTQSQKFMSTSVGDRVSITCKASQNVGTAVAWYQQKPGQSPKLLIFSASNRYTGVPDRFTGSGSGTDFTLTISNMQSEDLADYFCQQYSSYPYTFGGGTKLEIK
notes: as for B1
B4: COXs-2D2 human/mouse chimeric antibody with human IgG1 Fc (antibody, V domains shown)
VH: EVQLVESGGGLVQPKGSLKLSCTASGFSFDTYAMNWVRQAPGKGLEWIARIRSKSKNYATYYADSVKDRFTISRDDSANILYLQMNNLKTEDTAIYYCLRQGSFDYWGQGTTLTVSS
VL: DVVLTQTPLSLPVSLGDQASISCRSGQRIVHTDGNTYLYWYLQKPGQSPKLLIYRVSNRFSGVPDRFSGSGSGTDFTLKISRVEAEDMGIYYCFQGTHFPYTFGGGTKLEIK
B5: chimeric COXs-1B10 (antibody, V domains shown)
VH: QVTLKESGPGILKASQTLSLTCSFSGFSLSTSGMGIGWIRQPSGKGPEWLAHIWWDDEKYYRPSLKSRLTVSKDTSRNQVFLNITSVDTTDSASYYCVQRTPGRFAYWGQGTLVTVST
VL: DIVMTQSPSSLAVSIGQKVIMSCKSSQSLLSSRTQKNYLAWYQQKPGQSPKLLVYFASIRESGVPDRFTGSGSGTDFTLTISTVQAEDLAVYYCQQYFLTPYTFGGGTKLEIK
notes: also called COXs-1B10 human chimeric mAb
B6: Beacon2-G5 (antibody, V domains shown)
VH: EVQLVESGGDLVKPGGSLKLSCAASGFTFSSYGMSWVRQTPDKRLEWVATISSRGSYTYYPDSVKGRLTISRENAKNTLSLQMSSLKSEDTAMYYCARRVFPYWFFDVWGAGTTVTVSS
VL: DIVMTQSHKFMSTSVGDRVSITCKASQDVSTAVAWYQQKSGQSPKLLIYSASYRYTGVPDRFTGSGSGTDFTFTISSVQAEDLAVYYCQQHYTTPYTFGGGTKLEIK
notes: Mouse-derived
B7: CNE-6E10 human/mouse chimeric antibody with human IgG1 Fc (antibody, V domains shown)
VH: EVQLVESGGGLVQPKGSLKLSCAASGFSFNTYAMNWVRQAPGKGLEWVARIRSKTNSYETYYADSVKDRFTISRDDSESMLYLQMNNLKTEDTAVYYCLSHGAFAYWGQGTLVTVSA
VL: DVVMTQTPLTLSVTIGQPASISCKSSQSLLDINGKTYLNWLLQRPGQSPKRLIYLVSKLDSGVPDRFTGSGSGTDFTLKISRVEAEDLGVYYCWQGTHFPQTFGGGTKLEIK
B8: Genovac1-G2 human/mouse chimeric antibody with human IgG1 Fc (antibody, V domains shown)
VH: DVQLQESGPGLVKPSQSLSLTCSVTGYSITSGYYWNWIRQFPGNKLEWMGYIRYDGSNNYNPSLKNRISITRDTSKNQFFLKLNSVTTEDTATYYCARDGYSTYFDYWGQGTTLTVSS
VL: DIQMTQSPASLSASVGETVTITCRASENIYSYLAWYQQKQGKSPQLLVYNAKTLAEGVPSRFSGSGSGTQFSLKINSLQPEDFGSYYCQHHYGTPWTFGGGTKLEIK
B9: Genovac2-C1 (antibody, V domains shown)
VH: DVKLVESGGGLVKPGGSLKLSCAASGFTFSSYTMSWVRQTPEKRLEWVATISSGGSYTYYPDSVKGRFTISRDNAKNTLYLQMSSLKSEDTAMYYCTRGGGNYPFWFFDVWGAGTTVTVSS
VL: B8 VL with N76K, T94I, W96R, L104V, I106T
notes: Mouse antibody
B10: chimeric Genovac2-C1 (antibody, V domains shown)
VH: B9 VH
VL: B8 VL with N76K, T94I, W96R, L104V, I106T
notes: also called Genovac2-C1 human chimeric mAb; human/mouse chimeric mAb
B11: Genovac1-G2 (antibody, V domains shown)
VH: B8 VH
VL: B8 VL
notes: Mouse-derived

Columns and labels:
[1] = molecular target: T3, human CXCR6 (human, UniProt O00574 1-342); assay: screening on cells overexpressing CXCR6, one single concentration, yes/no
T3 construct: also called hu-CXCR6; wild type human CXCR6
T3 sequence (O00574 whole entry): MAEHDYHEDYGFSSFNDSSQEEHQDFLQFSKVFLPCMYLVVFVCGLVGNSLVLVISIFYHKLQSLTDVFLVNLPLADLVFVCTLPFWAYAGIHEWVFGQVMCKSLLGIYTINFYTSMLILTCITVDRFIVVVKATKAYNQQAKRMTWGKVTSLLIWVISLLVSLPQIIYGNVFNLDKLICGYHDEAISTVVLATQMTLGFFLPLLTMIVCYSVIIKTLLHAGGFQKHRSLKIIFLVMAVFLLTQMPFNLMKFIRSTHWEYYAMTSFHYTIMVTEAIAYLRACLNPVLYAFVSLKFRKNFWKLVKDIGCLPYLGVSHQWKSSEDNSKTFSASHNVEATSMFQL

[2] = molecular target: T1, cynomolgus monkey CXCR6; assay: as above
[3] = molecular target: T3, human CXCR6; assay: description of the chimeric clones used in the ADCC example
[4] = molecular target: T2, N-terminal fusion protein linking the …; assay: antibody pre-incubated with N-terminus-Fc fusion before staining human CXCR6 cells, flow cytometry (FIG. 12B)
Protocol: Three candidate antibodies that bind only to human CXCR6 and three candidate antibodies that bind to both human and cyno CXCR6 were further analyzed to locate their epitope residues. An N-terminal fusion protein was generated by linking the extracellular N terminus of human CXCR6 and the Fc region of human IgG1. Prior to staining cells over-expressing human CXCR6, the candidate antibodies (1 μg/ml) were pre-incubated with the N-terminal fusion protein (25 μg/ml) for 15 minutes at room temperature. A commercial antibody (R&D system, Minneapolis, MN) that only binds to human CXCR6 but not cyno- or mouse-CXCR6, was used as a control antibody.

[5] = molecular target: T1, cynomolgus monkey CXCR6; assay: description of the chimeric clones used in the ADCC example
[6] = molecular target: T1, cynomolgus monkey CXCR6; assay: flow cytometry on cells overexpressing CXCR6, serial dilutions of antibody (FIG. 11)
Protocol: Wild type C57BL/6 mice were immunized and boosted with a full-length human CXCR6-vector. Prior to immunization, the vector was tested for cell surface expression of native human CXCR6 on transfected mammalian cell lines by flow cytometry to ensure a successful immunization and screening. Genetic immunization was performed by ballistically delivering DNA-coated gold particles into the skin of wild type C57BL/6 mice to elicit a target-specific immune response. After the serum test showing satisfactory titer of antibody binding to both human CXCR6 and cyno monkey CXCR6, mice were sacrificed. A single B cell platform was used to sequentially screen bone marrow antibody-producing plasma cells for binding to both human and cyno monkey CXCR6. The conventional hybridoma technique was used on splenocytes and lymph node cells. […] After sequencing the VH and VL, clones with distinct CDRs were further expressed as full-length murine antibodies or human chimeric antibodies. […]
Cells overexpressing human-CXCR6 (hu-CXCR6), cyno monkey CXCR6 (cyno-CXCR6) or mouse CXCR6 were cultured in DMEM medium containing 10% FCS. […] After two rounds of washing with PBS/0.5% BSA buffer, cells were further stained with fluorescence dye-labeled secondary antibody. After two more rounds of washing, cells were resuspended in PBS/0.5% BSA, fixed, and collected by flow cytometry and analyzed.

[7] = molecular target: T3, human CXCR6; assay: flow cytometry on human CXCR6 over-expressing cells, no huCXCL-16 (FIG. 16)
Protocol: (§1) After washing and staining with secondary antibody, cells were analyzed by flow cytometry. The ED₅₀ for huCXCL-16 binding to human CXCR6 is 10-50 ng/ml. Thus, 1,500 ng/ml huCXCL-16 is an overwhelming concentration for competing with chimeric Genovac2-C1. In the absence of huCXCL-16, the ED₅₀ for chimeric Genovac2-C1 binding to human CXCR6 was 0.5 μg/ml (FIG. 16). In the presence of huCXCL-16 (1,500 ng/ml), the ED₅₀ for chimeric Genovac2-C1 binding to human CXCR6 was 1.5 μg/ml (FIG. 16). Accordingly, the human/mouse chimeric mAb retains the binding specificity and affinity in the presence of CXCL-16.

[8] = molecular target: T3, human CXCR6; assay: flow cytometry on human CXCR6 over-expressing cells pre-incubated with competitor huCXCL-16 at 1,500 ng/ml (FIG. 16)
Protocol: as §1

| Binder | binding result [1] | binding result [2] | binding result [3] | further results |
| --- | --- | --- | --- | --- |
| B1 | binds | binds | – | – |
| B2 | binds | binds | – | – |
| B3 | binds | binds | – | – |
| B4 | – | – | binds | – |
| B5 | – | – | binds | – |
| B6 | binds | binds | – | binding result [4]: no binding |
| B7 | – | – | binds | – |
| B8 | – | – | binds | binding result [5]: binds |
| B9 | – | – | – | binding result [6]: binds |
| B10 | – | – | – | EC50 [7]: 0.5 µg/mL; binding result [5]: binds; EC50 [8]: 1.5 µg/mL |
| B11 | binds | – | – | binding result [6]: binds |
